From article PMC6018666, “Structural basis for terminal loop recognition and stimulation of pri-miRNA-18a processing by hnRNP A1”

Experiments:
[1] = target: T1, hnRNP A1 RRM1 (UniProt P09651 1-97); experiment: ITC; N=1.01; ITC: 20 mM Na phosphate pH 6.5, 100 mM NaCl, no DTT, 25 C; EMSA: 100 mM KCl, 20% glycerol, 0.2 mM EDTA, 100 mM Tris pH 8.0, 0.5 mM DTT, 0.5 mM ATP, 20 mM creatine phosphate, 3.2 mM MgCl2, 4 C; footprint: 12 mM Tris-HCl pH 7.5, 48 mM NaCl, 1.2 mM MgCl2, 37 C; conditions: protein: recombinant; tags: His tag removed by TEV; single strand
[2] = target: T2, UP1 (hnRNP A1 RRM1-RRM2) (UniProt P09651 1-196); experiment: ITC; N=0.75; ITC: 20 mM Na phosphate pH 6.5, 100 mM NaCl, no DTT, 25 C; EMSA: 100 mM KCl, 20% glycerol, 0.2 mM EDTA, 100 mM Tris pH 8.0, 0.5 mM DTT, 0.5 mM ATP, 20 mM creatine phosphate, 3.2 mM MgCl2, 4 C; footprint: 12 mM Tris-HCl pH 7.5, 48 mM NaCl, 1.2 mM MgCl2, 37 C; conditions: protein: recombinant; tags: His tag removed by TEV; single strand
[3] = target: T3, hnRNP A1 RRM2 (UniProt P09651 94-196); experiment: ITC; N=1.09; text gives 6.9; ITC: 20 mM Na phosphate pH 6.5, 100 mM NaCl, no DTT, 25 C; EMSA: 100 mM KCl, 20% glycerol, 0.2 mM EDTA, 100 mM Tris pH 8.0, 0.5 mM DTT, 0.5 mM ATP, 20 mM creatine phosphate, 3.2 mM MgCl2, 4 C; footprint: 12 mM Tris-HCl pH 7.5, 48 mM NaCl, 1.2 mM MgCl2, 37 C; conditions: protein: recombinant; tags: His tag removed by TEV; single strand
[4] = target: T2, UP1 (hnRNP A1 RRM1-RRM2); experiment: ITC; N=1.01; ITC: 20 mM Na phosphate pH 6.5, 100 mM NaCl, no DTT, 25 C; EMSA: 100 mM KCl, 20% glycerol, 0.2 mM EDTA, 100 mM Tris pH 8.0, 0.5 mM DTT, 0.5 mM ATP, 20 mM creatine phosphate, 3.2 mM MgCl2, 4 C; footprint: 12 mM Tris-HCl pH 7.5, 48 mM NaCl, 1.2 mM MgCl2, 37 C; conditions: protein: recombinant; tags: His tag removed by TEV; single strand
[5] = target: UP1(R75E/R88E) (UniProt P09651 1-196, R75E;R88E); experiment: ITC; N=1.1; ITC: 20 mM Na phosphate pH 6.5, 100 mM NaCl, no DTT, 25 C; EMSA: 100 mM KCl, 20% glycerol, 0.2 mM EDTA, 100 mM Tris pH 8.0, 0.5 mM DTT, 0.5 mM ATP, 20 mM creatine phosphate, 3.2 mM MgCl2, 4 C; footprint: 12 mM Tris-HCl pH 7.5, 48 mM NaCl, 1.2 mM MgCl2, 37 C; conditions: protein: recombinant; tags: His tag removed by TEV; single strand
[6] = target: UP1(R75E/R88A) (UniProt P09651 1-196, R75E;R88A); experiment: ITC; N=1.08; ITC: 20 mM Na phosphate pH 6.5, 100 mM NaCl, no DTT, 25 C; EMSA: 100 mM KCl, 20% glycerol, 0.2 mM EDTA, 100 mM Tris pH 8.0, 0.5 mM DTT, 0.5 mM ATP, 20 mM creatine phosphate, 3.2 mM MgCl2, 4 C; footprint: 12 mM Tris-HCl pH 7.5, 48 mM NaCl, 1.2 mM MgCl2, 37 C; conditions: protein: recombinant; tags: His tag removed by TEV; single strand
[7] = target: T2, UP1 (hnRNP A1 RRM1-RRM2); experiment: ITC; not fitted by one-site model; ITC: 20 mM Na phosphate pH 6.5, 100 mM NaCl, no DTT, 25 C; EMSA: 100 mM KCl, 20% glycerol, 0.2 mM EDTA, 100 mM Tris pH 8.0, 0.5 mM DTT, 0.5 mM ATP, 20 mM creatine phosphate, 3.2 mM MgCl2, 4 C; footprint: 12 mM Tris-HCl pH 7.5, 48 mM NaCl, 1.2 mM MgCl2, 37 C; conditions: protein: recombinant; tags: His tag removed by TEV; hairpin
[8] = target: T3, hnRNP A1 RRM2; experiment: EMSA; ITC: 20 mM Na phosphate pH 6.5, 100 mM NaCl, no DTT, 25 C; EMSA: 100 mM KCl, 20% glycerol, 0.2 mM EDTA, 100 mM Tris pH 8.0, 0.5 mM DTT, 0.5 mM ATP, 20 mM creatine phosphate, 3.2 mM MgCl2, 4 C; footprint: 12 mM Tris-HCl pH 7.5, 48 mM NaCl, 1.2 mM MgCl2, 37 C; conditions: protein: recombinant; tags: His tag removed by TEV; label: internal radiolabel
[9] = target: T2, UP1 (hnRNP A1 RRM1-RRM2); experiment: as above; conditions: protein: recombinant; tags: His tag removed by TEV; label: internal radiolabel
[10] = target: T1, hnRNP A1 RRM1; experiment: as above; conditions: protein: recombinant; tags: His tag removed by TEV; label: internal radiolabel
[11] = target: T2, UP1 (hnRNP A1 RRM1-RRM2); experiment: ITC; N=1.07; ITC: 20 mM Na phosphate pH 6.5, 100 mM NaCl, no DTT, 25 C; EMSA: 100 mM KCl, 20% glycerol, 0.2 mM EDTA, 100 mM Tris pH 8.0, 0.5 mM DTT, 0.5 mM ATP, 20 mM creatine phosphate, 3.2 mM MgCl2, 4 C; footprint: 12 mM Tris-HCl pH 7.5, 48 mM NaCl, 1.2 mM MgCl2, 37 C; conditions: protein: recombinant, tags: His tag removed by TEV
[12] = target: T2, UP1 (hnRNP A1 RRM1-RRM2); experiment: ITC; N=1.35; ITC: 20 mM Na phosphate pH 6.5, 100 mM NaCl, no DTT, 25 C; EMSA: 100 mM KCl, 20% glycerol, 0.2 mM EDTA, 100 mM Tris pH 8.0, 0.5 mM DTT, 0.5 mM ATP, 20 mM creatine phosphate, 3.2 mM MgCl2, 4 C; footprint: 12 mM Tris-HCl pH 7.5, 48 mM NaCl, 1.2 mM MgCl2, 37 C; conditions: protein: recombinant; tags: His tag removed by TEV; hairpin
[13] = target: T2, UP1 (hnRNP A1 RRM1-RRM2); experiment: ITC; N=1.06; ITC: 20 mM Na phosphate pH 6.5, 100 mM NaCl, no DTT, 25 C; EMSA: 100 mM KCl, 20% glycerol, 0.2 mM EDTA, 100 mM Tris pH 8.0, 0.5 mM DTT, 0.5 mM ATP, 20 mM creatine phosphate, 3.2 mM MgCl2, 4 C; footprint: 12 mM Tris-HCl pH 7.5, 48 mM NaCl, 1.2 mM MgCl2, 37 C; conditions: protein: recombinant; tags: His tag removed by TEV; single strand
[14] = target: T2, UP1 (hnRNP A1 RRM1-RRM2); experiment: ITC; N=1.08; ITC: 20 mM Na phosphate pH 6.5, 100 mM NaCl, no DTT, 25 C; EMSA: 100 mM KCl, 20% glycerol, 0.2 mM EDTA, 100 mM Tris pH 8.0, 0.5 mM DTT, 0.5 mM ATP, 20 mM creatine phosphate, 3.2 mM MgCl2, 4 C; footprint: 12 mM Tris-HCl pH 7.5, 48 mM NaCl, 1.2 mM MgCl2, 37 C; conditions: protein: recombinant; tags: His tag removed by TEV; single strand
[15] = target: T2, UP1 (hnRNP A1 RRM1-RRM2); experiment: ITC; N=0.98; ITC: 20 mM Na phosphate pH 6.5, 100 mM NaCl, no DTT, 25 C; EMSA: 100 mM KCl, 20% glycerol, 0.2 mM EDTA, 100 mM Tris pH 8.0, 0.5 mM DTT, 0.5 mM ATP, 20 mM creatine phosphate, 3.2 mM MgCl2, 4 C; footprint: 12 mM Tris-HCl pH 7.5, 48 mM NaCl, 1.2 mM MgCl2, 37 C; conditions: protein: recombinant; tags: His tag removed by TEV; single strand

T2 sequence (P09651 1-196): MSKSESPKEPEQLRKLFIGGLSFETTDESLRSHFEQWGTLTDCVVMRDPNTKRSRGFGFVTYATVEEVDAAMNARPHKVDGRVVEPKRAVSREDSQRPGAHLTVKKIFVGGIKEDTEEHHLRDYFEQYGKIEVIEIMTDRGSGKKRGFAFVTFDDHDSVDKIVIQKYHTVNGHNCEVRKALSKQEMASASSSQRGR
T1 sequence (P09651 1-97): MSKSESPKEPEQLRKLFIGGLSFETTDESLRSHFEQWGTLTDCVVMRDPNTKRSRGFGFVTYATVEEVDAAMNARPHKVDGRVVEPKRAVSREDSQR
T3 sequence (P09651 94-196): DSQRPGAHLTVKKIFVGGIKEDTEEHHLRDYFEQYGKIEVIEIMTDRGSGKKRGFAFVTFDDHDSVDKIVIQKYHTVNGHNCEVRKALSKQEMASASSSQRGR
Sequence of UP1(R75E/R88E) (P09651 1-196 R75E/R88E): as the sequence (P09651 1-196) above, with R75E, R88E counted along it
Sequence of UP1(R75E/R88A) (P09651 1-196 R75E/R88A): as the sequence (P09651 1-196) above, with R75E, R88A counted along it

Question: AGUAGAU (ssRNA) [7-mer] was tested. Which Kd [1] did it give?
Answer: Its Kd is 20400 ± 1060 nM.

Question: And the Kd [2]?
Answer: The Kd was 3400 ± 120 nM.

Question: And the Kd [3]?
Answer: The Kd was 6800 ± 140 nM.

Question: For AGUAGAUUAGCA (ssRNA) [12-mer], which Kd [4] is on record?
Answer: Its Kd is 15.5 ± 3.4 nM.

Question: And the Kd [5]?
Answer: Its Kd is 40.1 ± 4.4 nM.

Question: And the Kd [6]?
Answer: Its Kd is 19 ± 2.05 nM.

Question: Does GGUGAAGUAGAUUAGCC (structured_RNA) [17-mer] bind [7]?
Answer: Result: binds

Question: What does the source list for GUGAAGUAGAUUAGC (structured_RNA) [pri-mir-18a terminal loop RNA]?
Answer: binding result [8]: no binding; binding result [9]: binds; binding result [10]: no binding

Question: Which Kd ([11]; hairpin) does the source give for GGUGAAGUAGAUUCGCC (structured_RNA) [17-mer(A35C)] here?
Answer: Its Kd is 3100 ± 190 nM.

B1: pri-mir-18a 71-mer (structured_RNA)
RNA: GGUUCUAAGGUGCAUCUAGUGCAGAUAGUGAAGUAGAUUAGCAUCUACUGCCCUAAGUGCUCCUUCUGGCC
Question: With B1 as the binder, how does the Kd [12] read?
Answer: The Kd was 148 ± 8.9 nM.

Question: Which Kd [13] does the source give for AGUUUAUUAGCA (ssRNA) [12-mer-mut1] here?
Answer: Its Kd is 154 ± 11 nM.

Question: Which Kd [14] does the source give for AGUAGAUUUUCA (ssRNA) [12-mer-mut2] here?
Answer: The Kd was 330 ± 26.5 nM.

Question: UUUAGAUUAGCA (ssRNA) [12-mer-mut3] was tested. Which Kd [15] did it give?
Answer: The Kd was 8.33 ± 1.35 nM.

Question: Which Kd ([11]; single strand) does the source give for UAGAUUAGCA (ssRNA) [10-mer] here?
Answer: Its Kd is 19.1 ± 6.73 nM.
